Assays:
[1] = molecular target: Val122Ile transthyretin (V122I TTR) (human) (UniProt P02766); assay: native gel or EMSA
[2] = molecular target: wild-type transthyretin (WT TTR) (human) (UniProt P02766); assay: native gel or EMSA

t50 of formation of the 2 FT2/2 TTR heterotetramer [1] [h] | Kex (subunit exchange rate constant) [2] [h⁻¹] | t50 of formation of the 2 FT2/2 TTR heterotetramer [2] [h] | Substance
2.84 |  |  | tandem flag-tagged Val122Ile transthyretin (FT2·V122I TTR) (from UniProt P02766 21-147) (natural protein)
 | 0.28 | 12.5 | tandem flag-tagged wild-type transthyretin (FT2·WT TTR) (from UniProt P02766 21-147) (natural protein)

Reference: PMC4204887
